{"source": "paper PMC4045705", "about": "(Chembiochem : a European journal of chemical biology, 2014)", "binders": {"B1": {"name": "synthetic DARPin pE59 (designed binder)", "chain": "GGGGGSDLGKKLLEAARAGQDDEVRILXANGADVNALDEDGLTPLHLAAQLGHLEIVEVLLKYGADVNAEDNFGITPLHLAAIRGHLEIVEVLLKHGADVNAQDKFGKTAFDISIDNGNEDLAEILQKLN", "modifications": "norleucine (Nle) at 28 in place of Met; C-terminal carboxamide (CONH2) at 130Asn"}}, "biological_target": "phosphorylated extracellular regulated kinase 2 (pERK2) (UniProt P28482 1-360, phosphorylated (sites not given))", "sequence (P28482 whole entry)": "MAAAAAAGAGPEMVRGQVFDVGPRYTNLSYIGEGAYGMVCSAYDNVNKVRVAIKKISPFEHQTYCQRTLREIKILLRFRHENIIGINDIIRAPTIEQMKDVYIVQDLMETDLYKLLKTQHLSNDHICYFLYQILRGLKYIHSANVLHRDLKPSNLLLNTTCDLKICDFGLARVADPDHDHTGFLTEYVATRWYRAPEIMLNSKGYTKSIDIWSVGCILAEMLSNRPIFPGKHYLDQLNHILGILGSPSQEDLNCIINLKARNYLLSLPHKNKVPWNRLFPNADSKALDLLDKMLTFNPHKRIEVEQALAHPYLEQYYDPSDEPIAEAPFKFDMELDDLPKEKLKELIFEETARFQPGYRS", "experiment": "SPR"}
{"binder": "B1", "values": [{"measurement": "Kd", "result": 190, "unit": "nM"}]}
